In patent US20040018571A1:

Biological target: T1, recombinant secreted soluble PSCA with a C-terminal 6xHis and MYC tag (human) (UniProt O43653)
T1 sequence (looked up): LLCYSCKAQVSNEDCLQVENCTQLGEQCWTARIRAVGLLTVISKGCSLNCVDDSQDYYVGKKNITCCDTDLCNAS
Experiment: SPR (BIAcore), recombinant His/MYC-tagged PSCA immobilized at low density (30 RU), mAb in solution

Kd: 1 nM | kon: 168000 M⁻¹ s⁻¹
B1: anti-PSCA monoclonal antibody 1G8 (ATCC No. HB-12612) (antibody, from another filing, mouse IgG1, V domains shown)
VH: EVQLQQSGAELVRSGASVKLSCTASGFNIKDYYIHWVNQRPDQGLEWIGWIDPENGDTEFVPKFQGKATMTADIFSNTAYLHLSSLTSEDTAVYYCKTGGFWGQGTLVTVSA
VL: QVVLTQSPAIMSASPGEKVTMACSASSSVRFIHWYQQKSGTSPKRWIYDTSKLASGVPTRFSGSGSGTSYSLTISTMEAEDAATYYCQQWSSSPFTFGSGTKLIIK
